Measurements published in patent US20230322953A1 (HARBOUR BIOMED SHANGHAI, published 2023).

Legend:
[1] = target: T1, human BCMA (human, UniProt Q02223 1-184); assay: FACS on NCI-H929 cells
T1 construct: whole, on cells; also called hBCMA; TNFRSF17
T1 sequence (looked up): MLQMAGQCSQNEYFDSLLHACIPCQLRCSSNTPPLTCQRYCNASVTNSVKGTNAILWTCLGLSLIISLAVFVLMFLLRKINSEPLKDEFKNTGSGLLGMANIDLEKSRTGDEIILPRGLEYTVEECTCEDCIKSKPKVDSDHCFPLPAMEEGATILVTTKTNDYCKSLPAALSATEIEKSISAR

[2] = target: T2, human PD-L1 on cells (CHO-K1/hPDL1; MDA-MB-231) (human, UniProt Q9NZQ7 19-290); assay: FACS, CHO-K1/hPDL1 cells (Experiment 2)
T2 construct: whole, on cells

[3] = target: T2, human PD-L1 on cells (CHO-K1/hPDL1; …); assay: competition FACS: biotinylated PD-1 to CHO-K1/hPDL1 cells (Experiment 2)
[4] = target: T3, human CTLA4 on cells (CHO-K1/hCTLA4; HEK293/hCTLA4; 293F-hCTLA4) (human, UniProt P16410 36-223); assay: FACS, CHO-K1/hCTLA4 cells (Test 2)
T3 construct: whole, on cells

[5] = target: T3, human CTLA4 on cells (CHO-K1/hCTLA4; …); assay: competition FACS: biotinylated B7-1-Fc to CHO-K1/hCTLA4 cells (Test 2)
[6] = target: T4, human BCMA (human, UniProt Q02223 1-184); assay: flow cytometry, NCI-H929 cells, Flag-tagged VH single domain, anti-tag secondary antibody
T4 construct: whole, on cells; the cell line is named under assay; also called TNFRSF17; CD269
T4 sequence (looked up): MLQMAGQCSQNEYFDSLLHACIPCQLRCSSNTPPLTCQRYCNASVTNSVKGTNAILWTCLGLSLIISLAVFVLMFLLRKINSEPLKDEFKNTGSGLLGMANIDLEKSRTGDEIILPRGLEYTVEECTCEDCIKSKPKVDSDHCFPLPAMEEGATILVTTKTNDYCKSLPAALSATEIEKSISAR

[7] = target: T5, biotinylated human BCMA-Fc, Avitag recombinant protein (ACRO Biosystems, #BC7-H82F0) (human, UniProt Q02223 1-54, biotinylated); assay: BLI, dissociation rate relative to the original molecule PR001046 VH
T5 construct: extracellular domain; Bought protein; also called human BCMA protein; recombinant human BCMA-ECD-Fc; not shown: Fc of the bought fusion protein; Avitag
T5 sequence (looked up): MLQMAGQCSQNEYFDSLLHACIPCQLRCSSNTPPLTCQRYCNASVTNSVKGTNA

[8] = target: T5, biotinylated human BCMA-Fc, Avitag …; assay: BLI (Octet Red96e), biotinylated BCMA-Fc on SA sensor, VH supernatant, 100 nM, single concentration

T3 sequence (P16410 36-223): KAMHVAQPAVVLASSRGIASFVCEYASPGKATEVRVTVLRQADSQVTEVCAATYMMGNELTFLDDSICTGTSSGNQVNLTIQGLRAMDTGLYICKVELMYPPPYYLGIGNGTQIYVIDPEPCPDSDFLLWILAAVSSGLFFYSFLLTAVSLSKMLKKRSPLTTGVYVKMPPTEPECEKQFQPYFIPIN
T2 sequence (Q9NZQ7 19-290): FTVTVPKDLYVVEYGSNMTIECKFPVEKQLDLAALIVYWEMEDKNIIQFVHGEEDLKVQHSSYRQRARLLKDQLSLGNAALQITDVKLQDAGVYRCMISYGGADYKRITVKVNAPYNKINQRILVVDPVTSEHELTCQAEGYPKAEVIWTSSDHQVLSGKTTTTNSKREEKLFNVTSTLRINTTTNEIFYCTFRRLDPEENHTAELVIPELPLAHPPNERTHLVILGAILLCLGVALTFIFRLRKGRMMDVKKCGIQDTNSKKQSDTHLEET

B1: PR002300 (bispecific antibody, human IgG1, lambda, L234A L235A)
light: QAVVTQEPSLTVSPGGTVTLTCRSSTGAVTTSNYANWVQQKPGQAPRGLIGGTNKRAPWTPARFSGSLLGDKAALTLLGAQPEDEAEYFCALWYSNLWVFGGGTKLTVLGQPKAAPSVTLFPPSSEELQANKATLVCLISDFYPGAVTVAWKADSSPVKAGVETTTPSKQSNNKYAASSYLSLTPEQWKSHRSYSCQVTHEGSTVEKTVAPTECS
heavy: EVQLLESGGGLVQPGGSLRLSCAASGFTFSTYAMNWVRQAPGKGLEWVSRIRSKYNNYATYYADSVKDRFTISRDDSKSTLYLQMNSLRAEDTAVYYCVRHGNFGNSYVSWFAYWGQGTLVTVSSASTKGPSVFPLAPSSKSTSGGTAALGCLVKDYFPEPVTVSWNSGALTSGVHTFPAVLQSSGLYSLSSVVTVPSSSLGTQTYICNVNHKPSNTKVDKKVEPKSCDKTHTCPPCPAPEAAGGPSVFLFPPKPKDTLMISRTPEVTCVVVDVSHEDPEVKFNWYVDGVEVHNAKTKPREEQYNSTYRVVSVLTVLHQDWLNGKEYKCKVSNKALGAPIEKTISKAKGQPREPQVYTLPPCREEMTKNQVSLWCLVKGFYPSDIAVEWESNGQPENNYKTTPPVLDSDGSFFLYSKLTVDKSRWQQGNVFSCSVMHEALHNHYTQKSLSLSPGK
chain: EVQLLESGGGLVQPGGSLRLSCAASGFTFSSYAMIWVRQAPGKGLEWVSGISESGGSTYYADSVKGRFTISRDNSKNTLYLQMNSLRAEDTAVYFCVKDLDDILTGYYKDYWGQGTLVTVSSRTGGGGSGGGGSGGGGSKLEVQLLESGGGLVQPGGSLRLSCAASGFTFSSYAMIWVRQAPGKGLEWVSGISESGGSTYYADSVKGRFTISRDNSKNTLYLQMNSLRAEDTAVYFCVKDLDDILTGYYKDYWGQGTLVTVSSASEPKSSDKTHTCPPCPAPEAAGGPSVFLFPPKPKDTLMISRTPEVTCVVVDVSHEDPEVKFNWYVDGVEVHNAKTKPREEQYNSTYRVVSVLTVLHQDWLNGKEYKCKVSNKALGAPIEKTISKAKGQPREPQVCTLPPSREEMTKNQVSLSCAVKGFYPSDIAVEWESNGQPENNYKTTPPVLDSDGSFFLVSKLTVDKSRWQQGNVFSCSVMHEALHNHYTQKSLSLSPGK
notes: BCMAxCD3, Fab-Fc-VH(2) (structure 14); CD3 Fab of PR001848, two BCMA VH of PR000940, linker RT-GS_15-KL; IgG1 knob/hole, AAG
- Maximum MFI [1]: 44200

B2: PR002332 (bispecific antibody, human IgG1, lambda, L234A L235A)
light: QAVVTQEPSLTVSPGGTVTLTCRSSTGAVTTSNYANWVQQKPGQAPRGLIGGTNKRAPWTPARFSGSLLGDKAALTLLGAQPEDEAEYFCALWYSNLWVFGGGTKLTVLGQPKAAPSVTLFPPSSEELQANKATLVCLISDFYPGAVTVAWKADSSPVKAGVETTTPSKQSNNKYAASSYLSLTPEQWKSHRSYSCQVTHEGSTVEKTVAPTECS
heavy: EVQLLESGGGLVQPGGSLRLSCAASGFTFSTYAMNWVRQAPGKGLEWVSRIRSKYNNYATYYADSVKDRFTISRDDSKSTLYLQMNSLRAEDTAVYYCVRHGNFGNSYVSWFAYWGQGTLVTVSSASTKGPSVFPLAPSSKSTSGGTAALGCLVKDYFPEPVTVSWNSGALTSGVHTFPAVLQSSGLYSLSSVVTVPSSSLGTQTYICNVNHKPSNTKVDKKVEPKSCDKTHTCPPCPAPEAAGGPSVFLFPPKPKDTLMISRTPEVTCVVVDVSHEDPEVKFNWYVDGVEVHNAKTKPREEQYNSTYRVVSVLTVLHQDWLNGKEYKCKVSNKALGAPIEKTISKAKGQPREPQVYTLPPCREEMTKNQVSLWCLVKGFYPSDIAVEWESNGQPENNYKTTPPVLDSDGSFFLYSKLTVDKSRWQQGNVFSCSVMHEALHNHYTQKSLSLSPGK
chain: EVQLVETGGGLIQPGGSLRLSCAASGFTVSDNYMTWVRQAPGKGLEWVSVIFSGGNTYYADSVKGRFTISRDNAKNTLYLQMNSLRAEDTALYYCARRNYDDTRGTDVFDIWGQGTMVTVSSRTGGGGSGGGGSGGGGSKLEVQLVETGGGLIQPGGSLRLSCAASGFTVSSNYMTWVRQAPGKGLEWVSVIFSGGSTYYADSVKGRFTISRDNSKNTLYLQMNSLRAEDTAVYYCARRIAVAGHDVFDIWGQGTMVTVSSASEPKSSDKTHTCPPCPAPEAAGGPSVFLFPPKPKDTLMISRTPEVTCVVVDVSHEDPEVKFNWYVDGVEVHNAKTKPREEQYNSTYRVVSVLTVLHQDWLNGKEYKCKVSNKALGAPIEKTISKAKGQPREPQVCTLPPSREEMTKNQVSLSCAVKGFYPSDIAVEWESNGQPENNYKTTPPVLDSDGSFFLVSKLTVDKSRWQQGNVFSCSVMHEALHNHYTQKSLSLSPGK
notes: BCMAxCD3, Fab-Fc-VH'-VH'' (structure 15); IgG1 knob/hole, AAG
- EC50 [1]: 9 nM
- Maximum MFI [1]: 84500

B3: PR001578 (bispecific antibody, human IgG1, kappa)
chain 1: EVQLVESGGGLIQPGGSLRLSCAVSGFTVSKNYMSWVRQAPGKGLEWVSVVYSGGSKTYADSVKGRFTISRDNSKNTLYLQMNSLRAEDTAVYYCARAVPHSPSSFDIWGQGTMVTVSSKLEPKSSDKTHTPPPPPRTDIQMTQSPSTLSASVGDRVTVTCRASQSIYIWLAWYQQKPGKAPNLLIYKASSLETGVPSRFSGSGSGTEFTLTISSLQPDDFATYYCQQYYGSSRTFGQGTKVEIKRTVAAPSVFIFPPSDEQLKSGTASVVCLLNNFYPREAKVQWKVDNALQSGNSQESVTEQDSKDSTYSLSSTLTLSKADYEKHKVYACEVTHQGLSSPVTKSFNRGEC
chain 2: not shown
notes: PD-L1×CTLA4, structure 9, Fc S239D, I332E
- EC50 [2]: 1.94 nM
- Maximum MFI [2]: 5660 MFI
- IC50 [3]: 1.69 nM
- Maximum inhibition rate (%) [3]: 81.4%
- EC50 [4]: 4.65 nM
- Maximum MFI [4]: 401 MFI
- IC50 [5]: 2.97 nM
- Maximum inhibition rate (%) [5]: 100%

B4: PR000274 (antibody, human IgG1, kappa, V domains shown)
VH: QVQLVQSGAEVKKPGSSVKVSCKASGGTFSNYWMHWVRQAPGQGLEWMGATYRGHSDTYYNQKFKGRVTITADKSTSTAYMELSSLRSEDTAVYYCARGAIYDGYDVLDNWGQGTLVTVSS
VL: DIQMTQSPSSLSASVGDRVTITCSASQDISNYLNWYQQKPGKAPKLLIYYTSNLHSGVPSRFSGSGSGTDFTLTISSLQPEDFATYYCQQYRKLPWTFGQGTKLEIKR
notes: also called Positive control 1; CA8-J6M0
- EC50 [1]: 28.9 nM

B5: PR001046 VH single-domain molecule (original molecule) (VHH)
VHH: EVQLVETGGGLIQPGGSLRLSCAASGFTVSDNYMTWVRQAPGKGLEWVSVIFSGGNTYYADSVKGRFTISRDNAKNTLYLQMNSLRAEDTALYYCARRNYDDTRGTDVFDIWGQGTMVTVSS
notes: not the HCAb form; not shown: Flag and His tags
- Maximum MFI [6]: 764
- Kdis fold [7]: 1
- Response [8]: 0.261
- koff [8]: 0.000696 s⁻¹

B6: PR004559, PR001046 VH-derived single-domain variant 1046-R1-12G7 (VHH)
VHH: EVQLVETGGGLIQPGGSLRLSCAASGFTVSDNYMTWVRQAPGKGLEWVSVIFSGGKTYYADSVKGRFTISRDNAKNTLYLQMNSLRAEDTALYYCARRNYDDTRGTDVFDIWGQGTMVTVSS
notes: Tested as VH single domain with Flag and His tags; also called PR001046-R1-12G7; not shown: Flag and His tags
- EC50 [6]: 22.4 nM
- Maximum MFI [6]: 1190
- Kdis fold [7]: 0.54
- Response [8]: 0.261
- koff [8]: 0.000379 s⁻¹

B7: PR004561, PR001046 VH-derived single-domain variant 1046-R2-10H1 (VHH)
VHH: EVQLVETGGGLIQPGGSLRLSCAASGFTVSDSYMTWVRQAPGKGLEWVSVIFSGGNTYYADSVKGRFTISRDNAKNTLYLQMNSLRAEDTALYYCARRNYDQTLGTDVFDIWGQGTMVTVSS
notes: Tested as VH single domain with Flag and His tags; not shown: Flag and His tags
- EC50 [6]: 4.38 nM
- Maximum MFI [6]: 1240
- Kdis fold [7]: 0.43
- Response [8]: 0.269
- koff [8]: 0.0003 s⁻¹

B8: PR004560, PR001046 VH-derived single-domain variant 1046-R2-10F1 (VHH)
VHH: EVQLVETGGGLIQPGGSLRLSCAASGFTVSDAYMTWVRQAPGKGLEWVSVIFSGGNTYVSDSVKGRFTISRDNAKNTLYLQMNSLRAEDTALYYCARRNYDQTRGTDVFDIWGQGTMVTVSS
notes: as for B7
- EC50 [6]: 3.75 nM
- Maximum MFI [6]: 1300
- Kdis fold [7]: 0.43
- Response [8]: 0.573
- koff [8]: 0.000301 s⁻¹

B9: PR001573 (bispecific antibody, human IgG1, kappa)
light: DIQMTQSPSTLSASVGDRVTVTCRASQSIYIWLAWYQQKPGKAPNLLIYKASSLETGVPSRFSGSGSGTEFTLTISSLQPDDFATYYCQQYYGSSRTFGQGTKVEIKRTVAAPSVFIFPPSDEQLKSGTASVVCLLNNFYPREAKVQWKVDNALQSGNSQESVTEQDSKDSTYSLSSTLTLSKADYEKHKVYACEVTHQGLSSPVTKSFNRGEC
chain: not shown
notes: PD-L1×CTLA4, structure 3
- EC50 [2]: 0.83 nM
- Maximum MFI [2]: 8310 MFI
- IC50 [3]: 0.5 nM
- Maximum inhibition rate (%) [3]: 82.3%
- EC50 [4]: 9.9 nM
- Maximum MFI [4]: 781 MFI
- IC50 [5]: 6.22 nM
- Maximum inhibition rate (%) [5]: 99.2%

B10: PR000416, anti-PD-L1 91G3H5H3(D54E), hIgG1 (antibody)
heavy: not shown
light: DIQMTQSPSTLSASVGDRVTVTCRASQSIYIWLAWYQQKPGKAPNLLIYKASSLETGVPSRFSGSGSGTEFTLTISSLQPDDFATYYCQQYYGSSRTFGQGTKVEIKRTVAAPSVFIFPPSDEQLKSGTASVVCLLNNFYPREAKVQWKVDNALQSGNSQESVTEQDSKDSTYSLSSTLTLSKADYEKHKVYACEVTHQGLSSPVTKSFNRGEC
- EC50 [2]: 0.5 nM
- Maximum MFI [2]: 8380 MFI
- IC50 [3]: 0.27 nM
- Maximum inhibition rate (%) [3]: 79.8%
